The target in test [1] is T1, huCTLA-4 ECD (his-tag) (human, UniProt P16410 37-162).
T1 construct: also called HX1 hCTLA4 his; HX1 huCTLA4 his; not shown: his-tag
T1 sequence: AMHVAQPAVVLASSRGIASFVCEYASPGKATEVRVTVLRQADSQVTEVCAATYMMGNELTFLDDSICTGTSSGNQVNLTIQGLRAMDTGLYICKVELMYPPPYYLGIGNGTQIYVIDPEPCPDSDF
As to the kind of experiment: ELISA: huCTLA-4 his coated at 1.0 µg/mL, antibody 2.5-fold dilutions from 1000 ng/mL, HRP goat anti-human IgG (Fc), OD 450 nm; unit from the axis 'Log ng/mL'. As to the method: HX1 hCTLA4 his was diluted with PBS (Hyclone) to 1.0 μg/mL, and the dilution was added to a microplate at 100 μL/well. The plate was let stand in an incubator at 37° C. and coated for 90 min and then washed, and 2% BSA was added to the plate at 200 μL/well. The plate was incubated in an incubator at 37° C. for 90 min and then washed. The chimeric antibodies in Table 3 and the control antibody (ipilimumab) were diluted with a diluent (2% BSA) to 1000 ng/mL. The dilution performed each time was not higher than 10-fold. Then, the chimeric antibodies and the control antibody were serially diluted 2.5-fold on a sample dilution plate. All the chimeric antibody solutions and the control antibody solution were added to a microplate at 100 μL/well. The plate was incubated in an incubator at 37° C. for 60 min and then washed. A horseradish peroxidase (HRP)-conjugated goat anti-human antibody IgG (Sigma, Catalog No. A0170) (Fc specific) was diluted 5000-fold with 2% BSA, and the dilution was added to the microplate at 100 μL/well. The plate was incubated in an incubator at 37° C. for 60 min and then washed. The color development solution TMB was added at 100 μL/well, during which bubbles were avoided. […] Reading (wavelength: 450/620 nm) was done within 10 min using a microplate reader.
A general note: In an ELISA, binding on a coated surface is turned into a signal by an enzyme label.

The target of test [2] is T2, huCTLA-4 expressed on cells (human, UniProt P16410 36-223).
T2 construct: the construct in the cells is not described; also called HuCTLA-4-expressing CHO cells; huCTLA-4-expressing Jurkat effector cells
T2 sequence: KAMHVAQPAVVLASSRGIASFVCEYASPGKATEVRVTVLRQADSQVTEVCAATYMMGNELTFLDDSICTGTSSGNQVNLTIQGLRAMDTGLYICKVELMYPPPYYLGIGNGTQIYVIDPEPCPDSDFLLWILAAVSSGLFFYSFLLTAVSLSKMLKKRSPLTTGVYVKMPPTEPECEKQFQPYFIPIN
Nature of the test: FACS: huCTLA-4-expressing CHO cells, antibody 3-fold dilutions from 10 µg/mL, PE anti-human IgG; unit from the axis 'log(JS007 concentration (ng/mL))'. As to the method: 6.2 FACS Detection of Binding of Chimeric Antibodies to huCTLA-4-Expressing Cells HuCTLA-4-expressing cells (constructed in-house by Junmeng; CHO from ATCC) were co-incubated with each of the chimeric antibodies in Table 3 and the control antibody (ipilimumab) (serially diluted 3-fold from an initial concentration of 10 μg/mL) at room temperature for 30 min, and then a fluorescent secondary antibody (PE-anti human IgG) was added to detect the binding of the chimeric antibodies to the huCTLA-4-expressing cells.
Background: Flow cytometry measures light scatter and fluorescence of single cells or particles in a stream.

Test [3] concerns the target T3, huCTLA4 N-his G28A (human, UniProt P16410 37-162).
T3 construct: … changed to …; not shown: N-terminal his-tag
As to the kind of experiment: ELISA: huCTLA4 N-his G28A coated at 1.0 µg/mL, huJS007-47 2.5-fold dilutions from 1000 to 0.042 ng/mL, HRP goat anti-human IgG (Fc), OD 450-620 nm. How it is done: (§1) The huCTLA-4 mutants used in the ELISA assays included non-mutated HXT huCTLA4 his, and mutated huCTLA4 N-his P27A, huCTLA4 N-his G28A, huCTLA4 N-his K29A and huCTLA4 N-his T31A. HuCTLA-4 his and its mutants were diluted with PBS (Hyclone) to 1.0 μg/mL, and a plate was coated with the dilution, incubated in an incubator at 37° C. for 90 min, washed and then blocked with 2% BSA. After the plate was washed, the monoclonal antibody huJS007-47 (serially diluted 2.5-fold with 2% BSA from 1000 ng/mL to 0.042 ng/mL) was added. The plate was incubated at 37° C. for 60 min and washed. A 1:5000 diluted HRP-conjugated goat anti-human antibody IgG (Fc specific) (Sigma, Catalog No. A0170) was used for detection. The plate was incubated at 37° C. for 60 min and then incubated with HRP substrate TMB (Sigma, Catalog No. T2885) at 37° C. for 15 min for color development. Finally, 2 M of hydrochloric acid was added to terminate the color development; during the addition, bubbles were avoided. Reading (wavelength: 450/620 nm) was done within 10 min using a microplate reader.

For test [4], the target named is hCTLA4 Nhis T31A. Nature of the test: ELISA: antigen coated at 1.0 µg/mL, huJS007-47 2.5-fold dilutions from 1000 to 0.042 ng/mL, HRP goat anti-human IgG (Fc), OD 450-620 nm; unit from the axis 'Log:ng/mL'. How it is done:
as §1

In test [5] the target is T4, HXT huCTLA4 his (non-mutated) (human, UniProt P16410 37-162).
T4 construct: not shown: his-tag
T4 sequence: T1 sequence
The description is as above. As to the method: as §1

The target of test [6] is T5, huCTLA4 N-his P27A (human, UniProt P16410 37-162).
T5 construct: … changed to …; not shown: N-terminal his-tag
The test is described as above. As to the method: as §1

In test [7] the target is T6, huCTLA4 N-his K29A (human, UniProt P16410 37-162).
T6 construct: … changed to …; not shown: N-terminal his-tag
Described as above. How it is done: as §1

Usually EC50 stands for the concentration that produces a half-maximal response. The low end stands for a more potent agent, the high end for a less potent agent.

B1: JS007-11 (antibody, V domains shown)
VH: EVQLQQSGAELVKSGASVKLSCTGSGFNIKDTYMHWVKQRPEEGLEWIGRIDPANGNTKSDPKFQGKATITADTSSNTAYLQLSSLTSVDTAVYYCARSMTTDPFTYWGQGTLVTVSS
VL: DIVMTQSQKFMSTSVGDSVSVTCKASQNVGTYVAWYQQKPGQSPKPLIYSTSYRYSGVPDRFTGSGSGTDFTLTISNVQSEDLAEYFCHQYDTYPLTFGAGTKLELK
notes: also called chimeric antibody JS007-11 (4B7.1-1 VH with 4B7.1-1 VL)
In turn, B1 gave an EC50 in test [1] of roughly 4010 µg/mL.

B2: JS007-1 (antibody, V domains shown)
VH: DVQLQESGQGLVKPSQSLSLTCSVTGYSITSGYYWNWIRQFPGNKLEWLGYIGYDGSNYYNPSLKNRISITRDTSKNQFFLKLNSVTSEDTATYFCARNYYSGYFDFWGQGTTLTVSS
VL: DIVMTQSQKFMSTSVGDRVSVTCKASQIVGSYVAWYQQKLGQSPKALIYSTSYRHSGVPDRFTGSGSGTDFTLTISNVQSEDLAEYFCQQHHLPLTFGAGTKLEIK
notes: also called chimeric antibody JS007-1 (1A5.1 VH with 1A5.1 VL)
For B2, the EC50 in test [2] was 4.18 ng/mL; in test [1] it was roughly 788 µg/mL.

B3: huJS007-47 (antibody, human IgG1, kappa, V domains shown)
VH: QVQLQESGPGLVKPSQTLSLTCTVSAYSITSGYYWNWIRQHPGKGLEWIGYIGYDGSNNYNPSLKSRVTISRDTSKNQFSLKLSSVTAADTAVYYCARDYYSGYFDSWGQGTTLTVSS
VL: DIQMTQSPSSLSASVGDRVTITCRASQNVGTYVAWYQQKPGKVPKPLIYSTSYRYSGVPSRFSGSGSGTDFTLTISSLQPEDVATYFCHQYDTYPLTFGAGTKLELKR
notes: also called JS007 antibody; monoclonal antibody huJS007-47
For the molecule B3, in test [3], the binding result is “no binding (tested: 1000 ng/mL (log 3))”. In addition, the EC50 in test [4] was 0.0136 µg/mL; in test [5] it was 0.0136 µg/mL; in test [6], 0.0333 µg/mL; in test [7], 0.0467 µg/mL.

For the origin of these results see patent US20230295301A1 (SHANGHAI JUNSHI BIOSCIENCES, published 2023).
